Assay results published in patent US20250154240A1, “ANTI-HUMAN CXCL1 ANTIBODY” (CHIOME BIOSCIENCE INC., priority 2022, published 2025).

T1: HuCXCL1 (Homo sapiens, UniProt P09341)
T1 construct: made in house; host or cells: Expi293 expression system (transient), protein from the culture supernatant
T1 sequence (P09341 35-107): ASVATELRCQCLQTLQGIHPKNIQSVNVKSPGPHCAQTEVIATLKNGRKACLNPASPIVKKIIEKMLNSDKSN

B1: 4A-2F7: mouse monoclonal anti-HuCXCL1 antibody clone; VH SEQ ID NO: 9, VL SEQ ID NO: 13 (antibody, listed as Mus musculus, V domains shown)
VH: QVTLKESGPGILKPSQTLSLTCSFSGFSLSTSGMGVDWIRQPSGKGLEWLAHIWWDDDKYYNPSLKSQLTISKDTSRNQVFLKITSVDTADTATYYCARSYGYDMDYYAMDYWGQGTSVTVSS
VL: DIQMTQSPSSLSASLGERVSLTCRASQEISGYLSWLQQKPDGTIKRLIYAASTLDSGVPKRFSGSRSGSDYSLTISSLESEDFADYYCLQYASYPPWTFGGGTKLEIK
B2: 5A-5E11: mouse monoclonal anti-HuCXCL1 antibody clone; VH SEQ ID NO: 17, VL SEQ ID NO: 21 (antibody, listed as Mus musculus, V domains shown)
VH: QVQLQQSGAELVRPGSSVKISCKASGYAFSDYWMNWVKQRPGQGLEWIGQIYPGDGDTNYNGKFKGKGTLTADKSSSTAYMQLNSLTSEDSAVYFCARERDYDVAMDYWGQGTSVTVSS
VL: DIQMTQSPSSLSASLGGKVTITCKASQDINKYIAWFQHKPGKGPRLVIHYTSILQPGIPSRFSGVGSGRDYSFSIRNLEPEDIATYYCLQYDNLPWTFGGGTKLEIK
B3: 028-8-12: human antibody against CXCL1 from the human ADLib technique; VH SEQ ID NO: 25, VL SEQ ID NO: 29 (antibody, listed as Gallus gallus, V domains shown)
VH: EVQLLESGGGLVQPGGSLRLSCAASGFTFSELSMSWVRQAPGKGLEWVSAISGSGGSTYYADSVKGRFTISRDNSKNTLYLQMNSLRAEDTAVYYCAREGGRLEPYYYYYAMDVWGQGTPVTVSS
VL: DIQMTQSPSSLSASVGDRVTITCRASQSISDNLHWYQQKPGKAPKLLIYDASNLESGVPSRFSGSGSGTDFTLTINSLQPEDFATYYCQQYYSTPLTFGQGTKLEIK
B4: 1A-7H10: mouse monoclonal anti-HuCXCL1 antibody clone; VH SEQ ID NO: 1, VL SEQ ID NO: 5 (antibody, listed as Mus musculus, V domains shown)
VH: QVQLKESGPVLVAPSQSLSITCSVSGFSSTTYGVHWVRQPPGQGLEWLGVIWAGGSTNYNSALMSRLSISKDNSKSQVFLKMNSLQTDDTAMYYCATQYHYPFAYWGQGTLVTVSA
VL: NIVMTQSPKSMSMSVGERVTLSCKASENVGIYVSWYQQKPEQSPKLMIYGASNRNTGVPDRFTGSGSATDFTLTISSVQAEDLADYYCGQSYSYPLTFGAGTKLELK
B5: Hu5A-5E11: humanized antibody VH1/VL1; VH SEQ ID NO: 76, VL SEQ ID NO: 78 (antibody, V domains shown)
VH: QVQLVQSGAEVKKPGSSVKVSCKASGYAFSDYWMNWVRQAPGQGLEWIGQIYPGSGDTNYNAKFKGKGTITADKSTSTAYMELSSLRSEDTAVYYCARERDYDVAMDYWGQGTTVTVSS
VL: DIQMTQSPSSLSASVGDRVTITCKASQDINKYIAWFQQKPGKAPKLVIHYTSILQPGVPSRFSGSGSGTDYTFTISSLQPEDIATYYCLQYDNLPWTFGGGTKVEIK

How the values were obtained:
HuCXCL1 = target: T1, HuCXCL1; experiment: HuCXCL1 binding activity, antigen-immobilized ELISA; settings: HuCXCL1 immobilized at 3 μg/mL
Experimental: Antibodies produced from the hybridomas were evaluated for their HuCXCL1 binding activity by ELISA assay using plates on which the antigen (HuCXCL1 protein) used for immunization had been directly immobilized.
To 96-well plates, phosphate-buffered saline (PBS) containing 3 μg/mL of HuCXCL1 was added in a volume of 50 μL per well, and the plates were allowed to stand overnight at 4° C. After removal of the antigen solution, PBS containing 2% skimmed milk and 0.05% Tween-20 (hereinafter referred to as the blocking solution) was added to each well for blocking reaction, and the plates were allowed to stand at room temperature for 1 hour. After removal of the blocking solution, the culture supernatants of the hybridomas or DT40 were each added in a volume of 50 µL per well and reacted at room temperature for 1 hour. After removal of the culture supernatants and washing with PBS containing 0.05% Tween-20, an HRP-labeled secondary antibody diluted with the blocking solution was added and reacted at room temperature for 1 hour. After washing, TMB (Dako) was added as a chromogenic substrate solution to cause color development, and after 10 minutes, 1 N sulfuric acid was added to stop the reaction, followed by measurement of absorbance at 450 nm.

CyCXCL1 = CyCXCL1 binding activity ELISA; set-up: species or system cynomolgus monkey; settings: absorbance to CyCXCL1 relative to absorbance to HuCXCL1
Experimental: Binding activity to cynomolgus monkey CXCL1 (CyCXCL1) was evaluated.
The same procedure as shown in [1-1] above was repeated to prepare a CyCXCL1 protein (antigen), except that the amino acid sequence of a HuCXCL1 protein was replaced with the amino acid sequence of a CyCXCL1 protein (Uniprot registration number: QUEAC3; SEQ ID NO: 82).
The evaluation of binding activity to CyCXCL1 was accomplished by ELISA assay. Absorbance was calculated in the same manner as shown in [2-1] above to evaluate antigen-binding activity, except that the protein immobilized on the plates was changed from a HuCXCL1 protein to a CyCXCL1 protein. An antibody whose absorbance to CyCXCL1 was 80% or more of its absorbance to HuCXCL1 was determined to have cross-reactivity and indicated with “o” while an antibody whose absorbance to CyCXCL1 was less than 80% of its absorbance to HuCXCL1 was indicated with “x” in Table A above.

CXCR2-expressing cells = experiment: In vivo migration inhibitory activity test on CXCR2-expressing cells, OCUM-12 orthotopic transplantation (prevention model); set-up: species or system mouse; settings: for Migration of CXCR2-expressing cells (CXCR2-positive cells per unit area in gastric tumor sections): 20 mg/kg intraperitoneally twice a week, compared to PBS or mouse IgG1
Text: (§1) The stomachs after measurement of the tumor size in [3-1] above were excised and fixed overnight at room temperature with a 10% neutral buffered formalin solution (Wako Pure Chemical Industries, Ltd., Japan), followed by replacement with PBS. Then, paraffin embedding and section preparation were outsourced to Applied Medical Research Laboratory, Japan. The prepared gastric tumor sections were immunohistologically stained with an anti-CXCR2 antibody to evaluate in vivo CXCR2 cell migration inhibitory activity. The sections were deparaffinized and rehydrated, and then treated to inactivate endogenous peroxidase. After antigen activation treatment, the sections were blocked with PBS containing 2% skimmed milk and 0.1% Tween-20, and reacted overnight at 4° C. with an anti-CXCR2 antibody (Biorbyt) as a primary antibody, which had been diluted to 0.3 μg/mL with the blocking solution. After washing with PBS containing 0.1% Tween-20, the sections were reacted at room temperature for 1 hour with an HRP-labeled goat anti-rabbit IgG antibody (Abcam) as a secondary antibody. After washing with a washing solution, a simple stain DAB solution (5052, Nichirei Corporation, Japan) was used to cause color development. After images of the stained tissues were captured with an Explore (Olympus Corporation, Japan), imaging software CellSens (Olympus Corporation, Japan) was used to calculate CXCR2-positive cells per unit area.
Navarixin is among small molecular compounds that act on CXCR2 and inhibit CXCL1-CXCR2 signaling. […] Then, using a model with OCUM-12 orthotopic transplantation, the migration inhibition of CXCR2-expressing cells and antitumor activity were evaluated in vivo for Navarixin. As a vehicle, ultrapure water containing 20% 2-hydroxypropyl-β-cyclodextrin (FUJIFILM Wako Pure Chemical Corporation, Japan) was used. Navarixin (MedChemExpress) was dissolved in ultrapure water containing 20% 2-hydroxypropyl-β-cyclodextrin, and orally administered at a dose of 100 mg/kg/day in a schedule of once a day for 5 consecutive days, followed by a 2-day withdrawal.
as §1, with “after measurement were excised” for “after measurement of the tumor size in [3-1] above were excised”, “and 0.1% Tween-20 (hereinafter referred to as the blocking solution), and reacted” for “and 0.1% Tween-20, and reacted”, “been diluted 1667-fold with the” for “been diluted to 0.3 μg/mL with the”, “to calculate positive cells per” for “to calculate CXCR2-positive cells per”
The dose-response relationship between antibody dose and in vivo antitumor activity or CXCR2 migration inhibitory activity was evaluated in a xenograft prevention model with OCUM-12 orthotopic transplantation. A prevention model is a model designed to start antibody administration from the day following tumor transplantation. […]

CyCXCL1, sequence (as listed by the source): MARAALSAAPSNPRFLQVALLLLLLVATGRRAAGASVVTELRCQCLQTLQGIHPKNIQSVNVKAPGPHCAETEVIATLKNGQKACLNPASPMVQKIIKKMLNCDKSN

Row | Molecule | Binding activity to HuCXCL1 ELISA (HuCXCL1) | Binding activity to CyCXCL1 ELISA (CyCXCL1) | Migration of CXCR2-expressing cells (CXCR2-positive cells per unit area in gastric tumor sections) (CXCR2-expressing cells; 3 weeks) | Migration of CXCR2-expressing cells (positive cells per unit area) (CXCR2-expressing cells; 400 μg/head intraperitoneally twice a week, 3 weeks, compared to hIgG1 antibody) | Dose at which the migration suppressive effect tended to reach a plateau (CXCR2-expressing cells; prevention model)
1 | B1 | ∘ | ∘ | significantly suppress the migration of CXCR2-expressing cells | – | –
2 | B2 | ∘ | ∘ | significantly suppress the migration of CXCR2-expressing cells | – | –
3 | B3 | ∘ | ∘ | significantly suppress the migration of CXCR2-expressing cells | – | –
4 | B4 | ∘ | ∘ | significantly suppress the migration of CXCR2-expressing cells | – | –
5 | B5 | – | – | – | significantly suppress the migration of CXCR2-expressing cells | ≥ 60 μg/head
